In patent publication US20220073643A1 (NANJING GENSCRIPT BIOTECH, published 2022):
Where a chain is given by its changes, count along the chain named.

B1: 391F1G2 (antibody, V domains shown)
VH: DVQLVESGGGLVQPGGSRKLSCAASGFTFSSFGMHWVRQAPEKGLEWVAYISSGSSPIYYADTVKGRFTISRDNPKNTLFLQMTSLRSEDTAMYFCARIYYGNSFAYWGQGTLVTVSA
VL: DIVMTQSPSSLTVTAGEKVAMSCKSSQTLLNSGNQKNYLTWYQQKPGQPPKLLLYWASTRESGVPDRFTGSGSGTDFTLTISSVQAEDLAVYYCQNAYYYPLTFGSGTKLELK
B2: 407E11H8 (antibody, V domains shown)
VH: B1 VH with S31D, V37I, A40T, S56R, A97V, I99F, Y101F, A106D, Y107H
VL: DIVMTQSPSFLTVTAGEKVTMTCRSSQNLLNSGNLKNYLTWYQQKPGQPPKLLISWASTRESGVPDRFTGSGSGTDFTLTISSVQPEDLALYYCQNAYSFPLTFGAGTKLELK
B3: 405G8F11 (antibody, V domains shown)
VH: B1 VH with A23V, A24T, T84S, I99F
VL: B1 VL with A20T, S22N, T28S, P46L, L54M, Y93F, N96S, Y98F, Y99S, S106A
B4: 410A9A9 (antibody, V domains shown)
VH: B1 VH with R98T, I99F
VL: B1 VL with A20T, P46S, L54I, Y99S, L102V, L110V
B5: 407D8G1 (antibody, V domains shown)
VH: B1 VH with S31G, V37I, A40T, S56R, K65Q, I99F, A106D, Y107H, A118S
VL: B2 VL with T22S, R24K, N28S, L35Q, S55Y, P86A
B6: 409G10G6 (antibody, V domains shown)
VH: B1 VH with S31G, V37I, A40T, G54D, S56R, A97G, I99F, A106D, Y107H
VL: B2 VL with M21L, T22S, N28S, L35Q, K36R, S55Y, P86A, L89R, A106T, K113R
B7: 395B3C11 (antibody, V domains shown)
VH: B1 VH with S31G, V37I, A40T, S56R, K65Q, I99F, A106D, Y107H, A118S
VL: B2 VL with T22S, R24K, N28S, L35Q, S55Y, P86A
B8: 406F11G8 (antibody, V domains shown)
VH: B1 VH with P75S
VL: B1 VL with L54I
B9: 410H6H3 (antibody, V domains shown)
VH: B1 VH with Q3L, F32S, S56N, P57T, V64L, F95Y, A106V
VL: B1 VL with A20I, T28S, L52M, L54I, T69R, A97N, S106T, E111A
B10: 411G3E10 (antibody, V domains shown)
VH: B1 VH with S31G, V37I, A40T, S56R, I99F, A106D, Y107H
VL: B2 VL with T22N, N28S, L35Q, S55Y, P86A
B11: 407A8G10 (antibody, V domains shown)
VH: B1 VH with S31G, V37I, A40T, S56R, I99F, A106D, Y107H
VL: B2 VL with T22S, N28S, L35Q, K36R, S55Y, T78A, P86A
B12: 394C2G5 (antibody, V domains shown)
VH: B1 VH with S31G, V37I, A40T, I51V, S56R, I99F, A106D, Y107H
VL: B2 VL with T22S, R24K, N28S, L35Q, S55Y, S82N, S83N, P86A, K113T
B13: 411G12G1 (antibody, V domains shown)
VH: B1 VH with S31G, V37I, S56R, I99F, A106D, Y107H
VL: B2 VL with T22S, R24K, N28S, L35Q, S55Y, P86A, L91V, A97D
B14: 391H11H3 (antibody, V domains shown)
VH: B1 VH with S31G, V37I, A40T, S56R, K65Q, I99F, A106D, Y107H, A118S
VL: B2 VL with T22S, R24K, N28S, L35Q, S55Y, P86A
B15: 410D9G2 (antibody, V domains shown)
VH: B1 VH with S31G, V37I, A40T, S56R, K65Q, I99F, A106D, Y107H, A118S
VL: B2 VL with T22S, R24K, N28S, L35Q, S55Y, P86A
B16: 392A11C8 (antibody, V domains shown)
VH: B1 VH with S31G, V37I, A40T, S56R, I99F, A106D, Y107H
VL: B2 VL with T22S, N28S, L35Q, S55Y, P86A
B17: 406E1H7 (antibody, V domains shown)
VH: B1 VH with S31G, V37I, A40T, S56R, K65Q, I99F, A106D, Y107H, A118S
VL: B2 VL with T22S, R24K, N28S, L35Q, S55Y, P86A
B18: 200A4H8 (antibody, V domains shown)
VH: QVQLKQSGPGLVQPSQSLSITCTVSGFSLTRYGVHWVRQSPGKGLEWLGVIWSGGNTDYNAAFISRLNIRKDNSKSQVFFKMNSLKPNDTAIYYCARAAYFGNSFDYWGQGTTLTVSS
VL: B1 VL with T12P, A20T, T28S, L54I, E61D, A97N, Y99I, S106A
B19: 409D1A7 (antibody, V domains shown)
VH: B1 VH with S31G, V37I, A40T, S56R, Q82H, I99F, A106D, Y107H
VL: B2 VL with T22N, R24K, N28S, L35Q, K36R, S55Y, P86A, K113N
B20: 411B4G4 (antibody, V domains shown)
VH: B1 VH with S31G, M34L, V37I, A40T, S56R, I99F, A106D, Y107H
VL: B2 VL with T22S, N28S, L35Q, K36R, S55Y, P86A
B21: 407H12E6 (antibody, V domains shown)
VH: B1 VH with F29V, M93I, I99F, A106D, Y107H
VL: DIVMTQSPSSLTVTTGEKVTMSCKSSQSLLNSGNQKNYLTWYQQKPGQSPKLLIYWASTRESGVPDRFTGSGSGTDFTLTISSVQTEDLAVYFCQNNYFFPLTFGAGTKLELK
B22: 393C2C5 (antibody, V domains shown)
VH: B1 VH with R98T, I99F
VL: B1 VL with A20T, P46S, L54I, Y99S, L102V, L110V
B23: 411A6E3 (antibody, V domains shown)
VH: B1 VH with S31D, V37I, A40T, S56R, A97V, I99F, Y101F, A106D, Y107H
VL: B2 VL
B24: 412B6E4 (antibody, V domains shown)
VH: B1 VH with M34V, P57T, D62H, T63S, R87G, M93T, F95Y, I99F
VL: B1 VL with A20T, T28S, L52M, L54I, Y99T, S106A, K109R
B25: 201F4H6 (antibody, V domains shown)
VH: QVQLKESGPGLVAPSQSLSITCTVSGFSLTSYGVSWVRQPPGKGLECLGVIWAGGNTNYNSALMSRLSISKDKSKSQVFLKMNSLQTDDTAMYYCARVYYGNAMDYWGQGTSVTVSS
VL: B21 VL with T15A, N37S, K45R, S49P, T86A, N97V, L102F, A106S, L112T
B26: 392C2F10 (antibody, V domains shown)
VH: EVQLQQSGPELVKPGASMKISCKASGYSFTGYTMNWVKQSLGKNLEWIGLINPFNGGTTYNQKFKGKATLTVDKSSSTAYMELLSLTSDDSAVYYCTRGDYWGQGTTLTVSS
VL: DIVMTQSPSSLTVTAGEKVTMSCKSSQSLLNSGNQKNYLTWYQQKPGQPPKLLIYWASTRESGVPDRFAGSGSGTDFTLTISSVQAEDLAVYYCQSDYSYPTFGAGTKLELK
B27: 406G3C4 (antibody, V domains shown)
VH: EIQLQQSGPELMKPGASVRISCKASGYSFISYYIYWVKQSHGKGLEWIGYIDPFNGNTNYNQKFKGKATLTVDRSSSTAYIHLNSLTSEDSAVYYCAIVNGYGRGAMDYWGQGTSVTVSS
VL: QIVLTQSPAIMSASPGEKVTMTCSASSSISYMHWYQQKSGTSPKRWIYDTSKLASGVPARFSGSGSGTSYSLTISSMEAEDAATYYCQQWSSNPLTFGDGTKLELK

Target: human Claudin18.2 (human)
Test: cell-based or functional assay

Row | CDC % Relative activity | CDC EC50 | Binder
1 | 176% | 1.47 µg/mL | B1
2 | 60.4% | 4.32 µg/mL | B2
3 | 0.08% | 3220 µg/mL | B3
4 | 300% | 0.872 µg/mL | B4
5 | 849% | 0.308 µg/mL | B5
6 | 55.6% | 4.7 µg/mL | B6
7 | 144% | 1.8 µg/mL | B7
8 | 101% | 2.57 µg/mL | B8
9 | 755% | 0.346 µg/mL | B9
10 | 82.2% | 3.31 µg/mL | B10
11 | 23.9% | 10.9 µg/mL | B11
12 | 131% | 1.98 µg/mL | B12
13 | 28.5% | 9.56 µg/mL | B13
14 | 125% | 2.07 µg/mL | B14
15 | 87.9% | 2.97 µg/mL | B15
16 | 133% | 1.95 µg/mL | B16
17 | 125% | 2.07 µg/mL | B17
18 | 84.5% | 2.27 µg/mL | B18
19 | 33.5% | 7.78 µg/mL | B19
20 | 68.3% | 3.98 µg/mL | B20
21 | 143% | 1.83 µg/mL | B21
22 | 285% | 0.909 µg/mL | B22
23 | 109% | 2.5 µg/mL | B23
24 | 577% | 0.472 µg/mL | B24
25 | 135% | 1.42 µg/mL | B25
26 | 5.43% | 47.6 µg/mL | B26
27 | 136% | 1.93 µg/mL | B27
